Experimental data published in paper PMC8271027.

Assays:
A*03:01/photoKK9 (human) [1] = target: A*03:01/photoKK9 (human)
B*27:05/photoRL9 (human) [2] = target: B*27:05/photoRL9 (human)
B*27:09/photoRL9 (human) [3] = target: B*27:09/photoRL9 (human)
A*03:01/photoKK9 (human) [4] = target: A*03:01/photoKK9 (human); remark: listed apart in the source
A*03:01/photoKK9 (human) [5] = target: A*03:01/photoKK9 (human); remark: listed apart in the source
B*27:09/photoRL9 (human) [6] = target: B*27:09/photoRL9 (human); remark: listed apart in the source
A*02:01/photoKV9 (human) [7] = target: A*02:01/photoKV9 (human)
A*03:01/photoKK9 (human) [8] = target: A*03:01/photoKK9 (human); remark: listed apart in the source
B*27:05/photoRL9 (human) [9] = target: B*27:05/photoRL9 (human); remark: listed apart in the source
B*27:09/photoRL9 (human) [10] = target: B*27:09/photoRL9 (human); remark: listed apart in the source
A*02:01/photoKV9 (human) [11] = target: A*02:01/photoKV9 (human); remark: listed apart in the source
A*03:01/photoKK9 (human) [12] = target: A*03:01/photoKK9 (human); remark: listed apart in the source
B*27:05/photoRL9 (human) [13] = target: B*27:05/photoRL9 (human); remark: listed apart in the source
B*27:09/photoRL9 (human) [14] = target: B*27:09/photoRL9 (human); remark: listed apart in the source

**Q.** “ERp57-Tsn^K16G (from UniProt O15533 21-398; P30101 25-504) (complex)” was tested. Which relative catalytic activity in peptide exchange, (Kon mutant - Kon noTsn)/(Kon WT - Kon noTsn); UV-exposed A*03:01/photoKK9, FITC-KK9 (A*03:01/photoKK9 (human) [1]) did it give?
**A.** 0.77 of WT

**Q.** What about the relative catalytic activity in peptide exchange, (Kon mutant - Kon noTsn)/(Kon WT - Kon noTsn); UV-exposed B*27:05/photoRL9, FITC-RL9 (B*27:05/photoRL9 (human) [2]) of the same substance?
**A.** 0.86 of WT

**Q.** What about the relative catalytic activity in peptide exchange, (Kon mutant - Kon noTsn)/(Kon WT - Kon noTsn); UV-exposed B*27:09/photoRL9, FITC-IF9 (B*27:09/photoRL9 (human) [3]) of the same substance?
**A.** 0.95 of WT

**Q.** And the relative catalytic activity in peptide exchange; UV-exposed A*03:01/photoKK9, FITC-KK9 (second printing, other number) (A*03:01/photoKK9 (human) [4])?
**A.** 0.73 of WT

**Q.** For “ERp57-Tsn^L18G (from UniProt O15533 21-398; P30101 25-504) (complex)”, which relative catalytic activity in peptide exchange, (Kon mutant - Kon noTsn)/(Kon WT - Kon noTsn); UV-exposed A*03:01/photoKK9, FITC-KK9 (A*03:01/photoKK9 (human) [1]) is on record?
**A.** 0.36 of WT

**Q.** And the relative catalytic activity in peptide exchange, (Kon mutant - Kon noTsn)/(Kon WT - Kon noTsn); UV-exposed B*27:05/photoRL9, FITC-RL9 (B*27:05/photoRL9 (human) [2])?
**A.** 0.05 of WT

**Q.** What about the relative catalytic activity in peptide exchange, (Kon mutant - Kon noTsn)/(Kon WT - Kon noTsn); UV-exposed B*27:09/photoRL9, FITC-IF9 (B*27:09/photoRL9 (human) [3]) of the same substance?
**A.** 0.04 of WT

**Q.** Which relative catalytic activity in peptide exchange against ERp57-Tsn^WT; UV-exposed A*03:01/photoKK9, FITC-KK9 (A*03:01/photoKK9 (human) [5]) does the source give for “ERp57-Tsn^K16L (from UniProt O15533 21-398; P30101 25-504) (complex)” here?
**A.** 0.93 of WT

**Q.** And the relative catalytic activity in peptide exchange against ERp57-Tsn^WT; UV-exposed B*27:09/photoRL9, FITC-IF9 (B*27:09/photoRL9 (human) [6])?
**A.** 1.26 of WT

**Q.** Which results are given for “TAPBPR (TAP-binding protein-related protein) (from UniProt Q9BX59 19-405) (natural protein)”?
**A.** fold increase of the peptide exchange rate (observed Kon of FITC-GV9, fluorescence polarisation) of 500 nM UV-exposed A*02:01/photoKV9 with equimolar TAPBPR against none (A*02:01/photoKV9 (human) [7]): 30.9 fold; fold increase of the peptide exchange rate (observed Kon of FITC-KK9, fluorescence polarisation) of 500 nM UV-exposed A*03:01/photoKK9 with equimolar TAPBPR against none (A*03:01/photoKK9 (human) [8]): 34.3 fold; fold increase of the peptide exchange rate (observed Kon of FITC-RL9, fluorescence polarisation) of 500 nM UV-exposed B*27:05/photoRL9 with equimolar TAPBPR against none (B*27:05/photoRL9 (human) [9]): 1.48 fold; fold increase of the peptide exchange rate (observed Kon of FITC-RL9, fluorescence polarisation) of 500 nM UV-exposed B*27:09/photoRL9 with equimolar TAPBPR against none (B*27:09/photoRL9 (human) [10]): 3.13 fold

**Q.** How did the fold increase of the peptide exchange rate (observed Kon of FITC-GV9, fluorescence polarisation) of 500 nM UV-exposed A*02:01/photoKV9 with equimolar ERp57-Tsn^WT against none (A*02:01/photoKV9 (human) [11]) turn out when “ERp57-Tapasin conjugate (wild-type) (from UniProt O15533 21-398; P30101 25-504) (complex)” was run?
**A.** 1.31 fold

**Q.** What about the fold increase of the peptide exchange rate (observed Kon of FITC-KK9, fluorescence polarisation) of 500 nM UV-exposed A*03:01/photoKK9 with equimolar ERp57-Tsn^WT against none (A*03:01/photoKK9 (human) [12]) of the same substance?
**A.** 10.9 fold

**Q.** And the fold increase of the peptide exchange rate (observed Kon of FITC-RL9, fluorescence polarisation) of 500 nM UV-exposed B*27:05/photoRL9 with equimolar ERp57-Tsn^WT against none (B*27:05/photoRL9 (human) [13])?
**A.** 5.83 fold

**Q.** And the fold increase of the peptide exchange rate (observed Kon of FITC-RL9, fluorescence polarisation) of 500 nM UV-exposed B*27:09/photoRL9 with equimolar ERp57-Tsn^WT against none (B*27:09/photoRL9 (human) [14])?
**A.** 3.83 fold
